According to patent publication US20130157929A1, “GLUCAGON ANALOGUES” (ZEALAND PHARMA A/S, published 2013):
Starred links: 1 amine or outer side, 2 acyl side, 3 side chain; linkers in the order of their positions; H or OH if unused. Non-standard residues stand in square brackets, D forms with d. Groups on a side chain read outwards from the residue. *: point of attachment. γGlu = O=C(O)[C@H](CCC(=O)[*:2])N[*:1]; Palmitoyl = CCCCCCCCCCCCCCCC(=O)*; 3Pal = N[C@@H](Cc1cccnc1)C(=O)O; Cit = NC(=O)NCCC[C@H](N)C(=O)O; hSer = N[C@@H](CCO)C(=O)O; Aib = CC(C)(N)C(=O)O

B1: Compound 31 (peptide)
peptide: H-H[Aib]HGTFTSDYSKYLESK([γGlu-Palmitoyl])AAEEFVEWLLEA-NH2
SMILES: CCCCCCCCCCCCCCCC(=O)N[C@@H](CCC(=O)NCCCC[C@H](NC(=O)[C@H](CO)NC(=O)[C@H](CCC(=O)O)NC(=O)[C@H](CC(C)C)NC(=O)[C@H](Cc1ccc(O)cc1)NC(=O)[C@H](CCCCN)NC(=O)[C@H](CO)NC(=O)[C@H](Cc1ccc(O)cc1)NC(=O)[C@H](CC(=O)O)NC(=O)[C@H](CO)NC(=O)[C@@H](NC(=O)[C@H](Cc1ccccc1)NC(=O)[C@@H](NC(=O)CNC(=O)[C@H](Cc1c[nH]cn1)NC(=O)C(C)(C)NC(=O)[C@@H](N)Cc1c[nH]cn1)[C@@H](C)O)[C@@H](C)O)C(=O)N[C@@H](C)C(=O)N[C@@H](C)C(=O)N[C@@H](CCC(=O)O)C(=O)N[C@@H](CCC(=O)O)C(=O)N[C@@H](Cc1ccccc1)C(=O)N[C@H](C(=O)N[C@@H](CCC(=O)O)C(=O)N[C@@H](Cc1c[nH]c2ccccc12)C(=O)N[C@@H](CC(C)C)C(=O)N[C@@H](CC(C)C)C(=O)N[C@@H](CCC(=O)O)C(=O)N[C@@H](C)C(N)=O)C(C)C)C(=O)O
B2: Compound 26 (peptide)
peptide: H-H[Aib][3‑(2-thienyl)alanyl]GTFTSDYSKYLDSK([γGlu-Palmitoyl])AAHDFVEWLLSA-NH2
B3: Compound 22 (peptide)
peptide: H-H[Aib][3‑(2-furyl)alanyl]GTFTSDYSKYLDSK([γGlu-Palmitoyl])AAHDFVEWLLSA-NH2
B4: Compound 25 (peptide)
peptide: H-H[Aib][3‑(1,2,4-triazol-1-yl)alanyl]GTFTSDYSKYLDSK([γGlu-Palmitoyl])AAHDFVEWLLSA-NH2
B5: Compound 27 (peptide)
peptide: H-H[Aib][3‑(3-thienyl)alanyl]GTFTSDYSKYLDSK([γGlu-Palmitoyl])AAHDFVEWLLSA-NH2
B6: Compound 29 (peptide)
peptide: H-H[Aib][hSer]GTFTSDYSKYLDSK([γGlu-Palmitoyl])AAHDFVEWLLSA-NH2
B7: Compound 1 (peptide)
peptide: H-H[Aib]HGTFTSDYSKYLDSK([γGlu-Palmitoyl])AAHDFVEWLLSA-NH2
SMILES: CCCCCCCCCCCCCCCC(=O)N[C@@H](CCC(=O)NCCCC[C@H](NC(=O)[C@H](CO)NC(=O)[C@H](CC(=O)O)NC(=O)[C@H](CC(C)C)NC(=O)[C@H](Cc1ccc(O)cc1)NC(=O)[C@H](CCCCN)NC(=O)[C@H](CO)NC(=O)[C@H](Cc1ccc(O)cc1)NC(=O)[C@H](CC(=O)O)NC(=O)[C@H](CO)NC(=O)[C@@H](NC(=O)[C@H](Cc1ccccc1)NC(=O)[C@@H](NC(=O)CNC(=O)[C@H](Cc1c[nH]cn1)NC(=O)C(C)(C)NC(=O)[C@@H](N)Cc1c[nH]cn1)[C@@H](C)O)[C@@H](C)O)C(=O)N[C@@H](C)C(=O)N[C@@H](C)C(=O)N[C@@H](Cc1c[nH]cn1)C(=O)N[C@@H](CC(=O)O)C(=O)N[C@@H](Cc1ccccc1)C(=O)N[C@H](C(=O)N[C@@H](CCC(=O)O)C(=O)N[C@@H](Cc1c[nH]c2ccccc12)C(=O)N[C@@H](CC(C)C)C(=O)N[C@@H](CC(C)C)C(=O)N[C@@H](CO)C(=O)N[C@@H](C)C(N)=O)C(C)C)C(=O)O
B8: Compound 24 (peptide)
peptide: H-H[Aib][3Pal]GTFTSDYSKYLDSK([γGlu-Palmitoyl])AAHDFVEWLLSA-NH2
B9: Compound 23 (peptide)
peptide: H-H[Aib][3‑(4-thiazolyl)alanyl]GTFTSDYSKYLDSK([γGlu-Palmitoyl])AAHDFVEWLLSA-NH2
B10: Compound 28 (peptide)
peptide: H-H[Aib][3‑(1-pyrazolyl)alanyl]GTFTSDYSKYLDSK([γGlu-Palmitoyl])AAHDFVEWLLSA-NH2
B11: Compound 21 (peptide)
peptide: H-H[Aib][Cit]GTFTSDYSKYLDSK([γGlu-Palmitoyl])AAHDFVEWLLSA-NH2
SMILES: CCCCCCCCCCCCCCCC(=O)N[C@@H](CCC(=O)NCCCC[C@H](NC(=O)[C@H](CO)NC(=O)[C@H](CC(=O)O)NC(=O)[C@H](CC(C)C)NC(=O)[C@H](Cc1ccc(O)cc1)NC(=O)[C@H](CCCCN)NC(=O)[C@H](CO)NC(=O)[C@H](Cc1ccc(O)cc1)NC(=O)[C@H](CC(=O)O)NC(=O)[C@H](CO)NC(=O)[C@@H](NC(=O)[C@H](Cc1ccccc1)NC(=O)[C@@H](NC(=O)CNC(=O)[C@H](CCCNC(N)=O)NC(=O)C(C)(C)NC(=O)[C@@H](N)Cc1c[nH]cn1)[C@@H](C)O)[C@@H](C)O)C(=O)N[C@@H](C)C(=O)N[C@@H](C)C(=O)N[C@@H](Cc1c[nH]cn1)C(=O)N[C@@H](CC(=O)O)C(=O)N[C@@H](Cc1ccccc1)C(=O)N[C@H](C(=O)N[C@@H](CCC(=O)O)C(=O)N[C@@H](Cc1c[nH]c2ccccc12)C(=O)N[C@@H](CC(C)C)C(=O)N[C@@H](CC(C)C)C(=O)N[C@@H](CO)C(=O)N[C@@H](C)C(N)=O)C(C)C)C(=O)O

Experiments:
[1] = biological target: human glucagon-like peptide 1 receptor (GLP-1R) (human, UniProt P43220); test: cell-based or functional assay
[2] = biological target: human glucagon receptor (glucagon-R) (human, UniProt P47871); test: cell-based or functional assay

Binder	EC50 (nM) GLP-1R, cAMP formation [1]	EC50 (nM) GluR, cAMP formation [2]
B1	0.09 nM	0.15 nM
B2	0.08 nM	1.16 nM
B3	0.06 nM	3.8 nM
B4	0.09 nM	0.71 nM
B5	0.27 nM	1.58 nM
B6	0.05 nM	0.79 nM
B7	0.21 nM	0.26 nM
B8	0.14 nM	1.04 nM
B9	0.11 nM	0.99 nM
B10	0.11 nM	4.85 nM
B11	1.2 nM	35 nM
